Test results reported in US20210147523A1 (TEIJIN PHARMA, published 2021).

What was measured:
Assay in all cases: flow cytometry
human SPNS2 Q131A mutant = molecular target: T1, human SPNS2 Q131A mutant (human, UniProt Q8IVW8 1-549)
T1 sequence: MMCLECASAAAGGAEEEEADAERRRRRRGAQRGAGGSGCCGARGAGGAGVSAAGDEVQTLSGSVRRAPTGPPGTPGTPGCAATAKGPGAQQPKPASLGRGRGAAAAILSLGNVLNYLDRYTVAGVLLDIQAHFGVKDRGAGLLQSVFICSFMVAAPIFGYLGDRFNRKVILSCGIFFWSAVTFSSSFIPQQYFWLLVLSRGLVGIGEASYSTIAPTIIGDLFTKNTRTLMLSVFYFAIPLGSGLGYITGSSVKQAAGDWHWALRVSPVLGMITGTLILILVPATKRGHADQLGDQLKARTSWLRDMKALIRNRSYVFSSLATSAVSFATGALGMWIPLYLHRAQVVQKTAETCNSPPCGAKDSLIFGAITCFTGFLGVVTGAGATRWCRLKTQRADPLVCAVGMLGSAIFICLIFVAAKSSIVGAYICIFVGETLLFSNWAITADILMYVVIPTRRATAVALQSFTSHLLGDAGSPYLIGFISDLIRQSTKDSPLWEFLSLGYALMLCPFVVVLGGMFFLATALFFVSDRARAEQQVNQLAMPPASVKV

human SPNS2 Q190A mutant = molecular target: T2, human SPNS2 Q190A mutant (human, UniProt Q8IVW8 1-549)
T2 sequence: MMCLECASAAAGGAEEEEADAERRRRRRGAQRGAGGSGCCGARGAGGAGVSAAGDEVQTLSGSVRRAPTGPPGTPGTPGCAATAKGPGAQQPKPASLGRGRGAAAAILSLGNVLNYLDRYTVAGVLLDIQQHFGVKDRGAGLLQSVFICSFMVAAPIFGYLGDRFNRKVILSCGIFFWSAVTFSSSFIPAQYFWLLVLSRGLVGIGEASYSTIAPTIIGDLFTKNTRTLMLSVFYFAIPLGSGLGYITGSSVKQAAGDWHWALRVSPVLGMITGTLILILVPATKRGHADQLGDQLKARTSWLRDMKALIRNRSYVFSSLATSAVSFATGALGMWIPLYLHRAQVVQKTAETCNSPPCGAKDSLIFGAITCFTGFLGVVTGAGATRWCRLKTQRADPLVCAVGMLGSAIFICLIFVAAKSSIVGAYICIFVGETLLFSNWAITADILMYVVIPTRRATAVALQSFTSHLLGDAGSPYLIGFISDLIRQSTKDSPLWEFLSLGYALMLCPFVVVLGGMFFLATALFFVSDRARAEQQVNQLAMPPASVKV

human SPNS2 G134A mutant = molecular target: T3, human SPNS2 G134A mutant (human, UniProt Q8IVW8 1-549)
T3 sequence: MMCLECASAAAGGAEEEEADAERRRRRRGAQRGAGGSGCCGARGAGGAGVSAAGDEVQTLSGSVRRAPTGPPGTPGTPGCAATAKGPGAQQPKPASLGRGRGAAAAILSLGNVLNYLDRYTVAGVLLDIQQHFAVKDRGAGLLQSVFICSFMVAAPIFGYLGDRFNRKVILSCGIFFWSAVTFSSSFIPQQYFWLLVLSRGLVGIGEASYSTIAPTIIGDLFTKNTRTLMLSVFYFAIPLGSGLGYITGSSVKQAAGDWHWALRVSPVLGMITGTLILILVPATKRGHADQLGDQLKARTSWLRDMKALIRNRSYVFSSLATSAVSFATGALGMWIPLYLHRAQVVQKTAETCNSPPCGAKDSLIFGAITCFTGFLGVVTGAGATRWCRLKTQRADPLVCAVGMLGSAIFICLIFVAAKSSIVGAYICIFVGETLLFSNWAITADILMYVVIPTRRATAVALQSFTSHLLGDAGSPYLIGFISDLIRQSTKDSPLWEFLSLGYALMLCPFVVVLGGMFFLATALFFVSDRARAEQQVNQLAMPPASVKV

human SPNS2 Q130A mutant = molecular target: T4, human SPNS2 Q130A mutant (human, UniProt Q8IVW8 1-549)
T4 sequence: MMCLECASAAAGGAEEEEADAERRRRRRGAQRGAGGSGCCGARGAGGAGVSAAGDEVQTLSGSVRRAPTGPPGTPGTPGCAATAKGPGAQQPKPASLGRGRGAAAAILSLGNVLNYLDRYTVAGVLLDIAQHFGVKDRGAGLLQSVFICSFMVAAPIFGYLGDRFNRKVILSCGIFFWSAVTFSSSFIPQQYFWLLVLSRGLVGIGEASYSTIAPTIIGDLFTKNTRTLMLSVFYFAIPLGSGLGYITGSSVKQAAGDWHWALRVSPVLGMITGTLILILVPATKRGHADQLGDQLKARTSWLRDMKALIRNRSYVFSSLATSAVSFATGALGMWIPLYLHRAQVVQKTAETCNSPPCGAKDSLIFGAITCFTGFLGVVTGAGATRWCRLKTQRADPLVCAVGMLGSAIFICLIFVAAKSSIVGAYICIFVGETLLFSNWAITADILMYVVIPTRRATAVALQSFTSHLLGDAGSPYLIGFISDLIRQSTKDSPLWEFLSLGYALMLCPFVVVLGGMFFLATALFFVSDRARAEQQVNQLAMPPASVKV

human SPNS2 D128A mutant = molecular target: T5, human SPNS2 D128A mutant (human, UniProt Q8IVW8 1-549)
T5 sequence: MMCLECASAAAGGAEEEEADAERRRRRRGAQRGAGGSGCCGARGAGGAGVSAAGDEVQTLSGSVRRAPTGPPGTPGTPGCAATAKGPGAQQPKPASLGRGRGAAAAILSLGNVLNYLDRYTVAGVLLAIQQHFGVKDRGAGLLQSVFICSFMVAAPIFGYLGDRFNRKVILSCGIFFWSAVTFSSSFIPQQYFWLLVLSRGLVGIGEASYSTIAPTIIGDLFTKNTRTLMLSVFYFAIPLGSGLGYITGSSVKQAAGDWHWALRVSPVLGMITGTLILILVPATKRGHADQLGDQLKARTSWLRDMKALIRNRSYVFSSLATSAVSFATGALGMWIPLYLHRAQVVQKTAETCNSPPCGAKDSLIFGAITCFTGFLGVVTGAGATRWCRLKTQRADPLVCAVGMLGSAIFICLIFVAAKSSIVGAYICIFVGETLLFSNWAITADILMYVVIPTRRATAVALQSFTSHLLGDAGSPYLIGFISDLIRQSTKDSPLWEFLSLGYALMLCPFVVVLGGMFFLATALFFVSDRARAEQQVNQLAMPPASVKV

B1: 65-0810G (antibody, IgG2b, V domains shown)
VH: EVHLVESGGGLVQPGRSMKLSCTASGFTFNNYYMAWVRQAPTKGLEWVASISTGGGYTYYRDSVKGRFTISRDNTGNTLYLQMDSLRSEDTATYYCARCWELPYWGQGVMVTVSS
VL: QFVLTQPNSVSTNLGSTVKLSCRRSSGNIGNNYVNWYRQHEGRSPTTMIYRDDTRPDGVPNRFSGSIDRSSNSALLTINNVRPEDEAYYFCQSYSGSIYIFGGGTKLTVL
binding ratio vs native type (human SPNS2 Q131A mutant): < 0.5 ratio

B2: 93-1310F (antibody, IgG2b, V domains shown)
VH: EVQLVETGGGLVQPGSSLKLSCATSGFTFSDTWMSWVRQAPGKGLEWVALIKDKNSNYEANYAESVKGRFTISRDDSKRRVYLQMFTLRDQDTATYYCTSHEDFYYYSSYYFDYWGHGVMVTVSS
VL: DIVLTQSPATLSVTPGESVSLSCRASQGISTSIHWYQQKSNGSPRLLIKYASQSISGIPSRFSGSGSGTDFTLRINRVESEDFSVYYCQQTYSLPLTFGSGTRLEIKR
binding ratio vs native type (human SPNS2 Q190A mutant): < 0.5 ratio

B3: 96-1403F (antibody, IgG2b, V domains shown)
VH: EVQLVETGGGLVRPGSSLKLSCATSGFTFSDTWMSWVRQAPGKGLEWVALIKDKNSNSEANYAESIKGRFTISRDDSKSRVYLQMNTLRDQDTATYYCTRHEDFYYYSGYYFDYWGQGVMVTVSS
VL: DIVLTQSPPTLSVTPGESVSLSCRASQGISTSIHWYQQRSNESPRLLIKYASQSIAGIPSRFSGSGSGTDFILSINRVESEDFSVYYCQQTYSLPLTFGPGTKLEVKR
binding ratio vs native type (human SPNS2 Q190A mutant): < 0.5 ratio

B4: 64-0807A (antibody, IgG2b, V domains shown)
VH: EVQVVESGGGLVQPGRSMKLSCAALGFTFRDYYMAWVRQTPTKGLEWVAAISTGGGNTYYRDSVKGRFTISRDNAKSTLYLQMDSLRSDDTATYYCARNPYGNYFDYWGQGVMVTVSS
VL: QFVLSQPNSVSTNLGSTVKLSCKRSTGNIGSNYVHWYQRHEGRSPTTLIYRDDKRPNGVPDRFSGSIDRSSNSALLTINNVQTEDEADYFCQSYSGGMYLFGGGTKLTVL
binding ratio vs native type (human SPNS2 Q131A mutant): < 0.5 ratio
binding ratio vs native type (human SPNS2 G134A mutant): < 0.5 ratio

B5: 50-0704C (antibody, IgG2b, V domains shown)
VH: EVQLVGSGGGLVQPGRSMKLSCEASGFTFSNHYMAWVRQAPTKGLEWVATISTGGGNTYYRDSVKGRFTISRDNARSTLSLQMDSLRSEDTATYYCARQDYSNYMGGFAYWGQGTLVTVSS
VL: QFVLTQPNSVSTNLGSTVKLSCTRSIGNIGNNYVNWYKQYEGRSPTTMIYRDDERPDGVPDRFSGSIDRSSNSALLTINSVQTEDEADYFCQSFSSGIFIFGGGTKLTVL
binding ratio vs native type (human SPNS2 Q130A mutant): < 0.5 ratio

B6: 49-0703G (antibody, IgG2b, V domains shown)
VH: EVQLVESGGGLVQPGRSMKLSCAASGFTFSNHYMAWVRQAPTKGLEWVASISTGGGNTYYRDSVKGRFTISRDNAKSTLYLQMDSLRSEDTATYYCARQDYSNYMGGFAYWGQGTLVTVSS
VL: QFVLTQPNSVSTNLGSTVKLSCKRSTGNIGNNYVNWYQQYEGRSPTTMIYRDDERPDGVPDRFSGSIDRSSNSALLTINNVQTEDEADYFCQSFSNGMFIFAGGTQLTVL
binding ratio vs native type (human SPNS2 Q130A mutant): < 0.5 ratio

B7: 18-0211B (antibody, IgG2b, V domains shown)
VH: AVQLVGSGGGLVQPGRSMKLSCEASGFTFSNHYMAWVRQAPTRGLEWVATISTGGGNTYYRDSVKGRFTISRDNTRSTLSLQMDSLRSEDTATYYCTRQDYTNYMGGFAYWGQGTLVTVSS
VL: QFVLTQPNSVSTNLGSTVKLSCTRSIGNIGNNYVNWYKQYEGRSPTTLIYRDDERPDGVPDRFSGSIDRSSNSALLTINSVQTEDGADYFCQSFSSGIFIFGGGTTLTVL
binding ratio vs native type (human SPNS2 Q130A mutant): < 0.5 ratio

B8: 37-0511F (antibody, IgG2b, V domains shown)
VH: EVHLQQSGAALVRPRASVKLSCKVSGDSISRYYVHFVKQRPGQGLEWIGRIDPEDDTTKYSEKFKNRATLTADASSDTASLILSGLTSDDTATYFCSTLTGLDYWGQGVMVTVSS
VL: DIQMTQSPPVLSTSVGDRVTLRCKPSQNVHSKLDWYQQKHGEAPKLLIYYTHNLQTGIPSRFSGSGSGTDYTLTISSLQPEDVATYYCFQYYSGWTFGGGTKLEMKR
binding ratio vs native type (human SPNS2 D128A mutant): < 0.5 ratio

B9: 53-0707E (antibody, IgG2b, V domains shown)
VH: EVQLQQSGAELVRPRTSVKLSCKVSGDSITRYYVHFVKQRPGQGLEWIGRIDPEDDTTKYSEKFKKKATLTADASSNTAYLIFSGLTSEDTATYFCSTLTGLDYWGQGVMVTVSS
VL: DIQMTQSPPVLSTSVGDRVTLRCKASQNVHSKLDWYQQKHGEAPKLLIYYTHNLQTGIPSRFSGSGSGTDYTLTISSLQPEDVATYYCFQYYSGWTFGGGTKLEMKR
binding ratio vs native type (human SPNS2 D128A mutant): < 0.5 ratio
